Positions count from the first letter of the chain named.

The labels stand for the following.
B1: CD33/CD3 tandem diabody 21 (bispecific antibody)
chain: DIQMTQSPSSLSASVGDRVTITCRSSTGAVTTSNYANWVQQKPGKAPKALIGGTNKRAPGVPSRFSGSLIGDKATLTISSLQPEDFATYYCALWYSNLWVFGQGTKVEIKGGSGGSQVQLVQSGAEVKKPGSSVKVSCKASGGTFSSYAISWVRQAPGQGLEWMGGIYPIFGSANYAQKFQGRVTITADESTSTAYMELSSLRSEDTAVYYCAREYYYDSSEWAFDIWGQGTLVTVSSGGSGQSVLTQPPSASGTPGQRVTISCSGSSSNIGSNIVNWYQQLPGTAPKLLIYSNNQRPSGVPDRFSGSKSGTSASLAISGLQSEDEADYYCAAWDDSLKGYVFGGGTKLTVLGGSGGSEVQLVESGGGLVQPGGSLRLSCAASGFTFSTYAMNWVRQAPGKGLEWVGRIRSKYNNYATYYADSVKDRFTISRDDSKNSLYLQMNSLKTEDTAVYYCARHGNFGNSYVSYFAYWGQGTLVTVSSAAAGSHHHHHH
notes: Non-covalent homodimer; domain order 1; also called TandAb 21
B2: CD33/CD3 tandem diabody 22 (bispecific antibody)
chain: B1 chain with A149G, Y168I, N175H, I275T, N277K, P298S, T312S, K339N
notes: Non-covalent homodimer; domain order 1; also called TandAb 22
B3: CD33/CD3 tandem diabody 24 (bispecific antibody)
chain: DIQMTQSPSSLSASVGDRVTITCRSSTGAVTTSNYANWVQQKPGKAPKALIGGTNKRAPGVPSRFSGSLIGDKATLTISSLQPEDFATYYCALWYSNLWVFGQGTKVEIKGGSGGSQVQLVQSGAEVKKPGSSVKVSCKASGGTFDSYAISWVRQAPGQGLEWMGGIIPIFGSAHYSQKFQGRVTITADESTSTAYMELSSLRSEDTAVYYCAREYYYDSSEWAFDIWGQGTLVTVSSGGSGQSVLTQPPSASGTPGQRVTISCSGSSSNIGDNVVNWYQQLPGTAPKLLIYSTNKRPSGVPDRFSGSKSGSSASLAISGLQSEDEADYYCAAWDDSLSAYVFGGGTKLTVLGGSGGSEVQLVESGGGLVQPGGSLRLSCAASGFTFSTYAMNWVRQAPGKGLEWVGRIRSKYNNYATYYADSVKDRFTISRDDSKNSLYLQMNSLKTEDTAVYYCARHGNFGNSYVSYFAYWGQGTLVTVSSAAAGSHHHHHH
notes: Non-covalent homodimer; domain order 1; also called TandAb 24
B4: CD33/CD3 tandem diabody 13 (bispecific antibody)
chain: DIQMTQSPSSLSASVGDRVTITCRSSTGAVTTSNYANWVQQKPGKAPKGLIGGTNKRAPGVPSRFSGSLIGTDFTLTISSLQPEDFATYYCALWYSNLWVFGQGTKVEIKGGSGGSQVQLVQSGAEVKKPGASVKVSCKASGYTFTSYDINWVRQAPGQGLEWMGWMNPNSGNTGFAQKFQGRVTMTRDTSTSTVYMELSSLRSEDTAVYYCARDRAVTDYYYGMDVWGQGTLVTVSSGGSGQSVLTQPPSASGTPGQRVTISCSGSRSNIGSNTVNWYQQLPGTAPKLLIYGNNQRPSGVPDRFSGSKSGTSASLAISGLQSEDEADYYCATWDDSLIGWVFGGGTKLTVLGGSGGSEVQLVESGGGLVQPGGSLRLSCAASGFTFSTYAMNWVRQAPGKGLEWVGRIRSKYNNYATYYADSVKDRFTISRDDSKNSLYLQMNSLKTEDTAVYYCARHGNFGNSYVSWFAYWGQGTLVTVSS
notes: Non-covalent homodimer; domain order 1; also called TandAb 13
B5: CD33/CD3 tandem diabody 23 (bispecific antibody)
chain: DIQMTQSPSSLSASVGDRVTITCRSSTGAVTTSNYANWVQQKPGKAPKGLIGGTNKRAPGVPSRFSGSLIGTDFTLTISSLQPEDFATYYCALWYSNLWVFGQGTKVEIKGGSGGSQVQLVQSGAEVKKPGSSVKVSCKASGGTFSSYGISWVRQAPGQGLEWMGGIIPIFGSAHYAQKFQGRVTITADESTSTAYMELSSLRSEDTAVYYCAREYYYDSSEWAFDIWGQGTLVTVSSGGSGQSVLTQPPSASGTPGQRVTISCSGSSSNIGSNTVKWYQQLPGTAPKLLIYSNNQRSSGVPDRFSGSKSGSSASLAISGLQSEDEADYYCAAWDDSLNGYVFGGGTKLTVLGGSGGSEVQLVESGGGLVQPGGSLRLSCAASGFTFSTYAMNWVRQAPGKGLEWVGRIRSKYNNYATYYADSVKDRFTISRDDSKNSLYLQMNSLKTEDTAVYYCARHGNFGNSYVSWFAYWGQGTLVTVSS
notes: Non-covalent homodimer; domain order 1; also called TandAb 23
B6: CD33/CD3 tandem diabody 05 (bispecific antibody)
chain: DIQMTQSPSSLSASVGDRVTITCRSSTGAVTTSNYANWVQQKPGKAPKGLIGGTNKRAPGVPARFSGSGSGTDFTLTISSLQPEDFATYYCALWYSNLWVFGQGTKVEIKGGSGGSQVQLVQSGAEVKKPGASVKVSCKASGYTFTSYDINWVRQAPGQGLEWMGWMNPNSGNTGFAQKFQGRVTMTRDTSTSTVYMELSSLRSEDTAVYYCARDRANTDYSFGMDVWGQGTLVTVSSGGSGGQSVLTQPPSASGTPGQRVTISCSGSRSNIGSNTVNWYQQLPGTAPKLLIYGNNQRPSGVPDRFSGSKSGTSASLAISGLQSEDEADYYCATWDDSLIGWVFGGGTKLTVLGGSGGSEVQLVESGGGLVQPGGSLRLSCAASGFTFSTYAMNWVRQAPGKGLEWVGRIRSKYNNYATYYADSVKDRFTISRDDSKNSLYLQMNSLKTEDTAVYYCARHGNFGNSYVSWFAYWGQGTLVTVSSAAAGSHHHHHH
notes: Non-covalent homodimer; domain order 1; also called TandAb 05; tandem diabody 5
B7: CD33/CD3 tandem diabody 06 (bispecific antibody)
chain: B6 chain with F223L
notes: Non-covalent homodimer; domain order 1; also called TandAb 06; tandem diabody 6
B8: CD33/CD3 tandem diabody 07 (bispecific antibody)
chain: DIQMTQSPSSLSASVGDRVTITCRSSTGAVTTSNYANWVQQKPGKAPKALIGGTNKRAPGVPSRFSGSLIGDKATLTISSLQPEDFATYYCALWYSNLWVFGQGTKVEIKGGSGGSQVQLQESGGGVVQPGRSLRLSCAASGFSFSNYGIHWVRQAPGKGLEWVALISYDGNKKFYADSVKGRFAISRDTSKNTVDLQMTSLRPEDTAVYYCAKDRLESAAFDYWGQGTLVTVSSGGSGGSSYELTQPPSVSVAPGQTAMITCGGNNIGSTTVHWYQQKPGQAPVLVVYDDNERPSGIPERFSGSNSGSTATLTINRVEAGDEADYYCQVWDSGSDHVVFGGGTKLTVLGGSGGSEVQLVESGGGLVQPGGSLRLSCAASGFTFSTYAMNWVRQAPGKGLEWVGRIRSKYNNYATYYADSVKDRFTISRDDSKNSLYLQMNSLKTEDTAVYYCARHGNFGNSYVSYFAYWGQGTLVTVSSAAAGSHHHHHH
notes: Non-covalent homodimer; domain order 1; also called TandAb 07; tandem diabody 7

T1 sequence (P20138 18-364): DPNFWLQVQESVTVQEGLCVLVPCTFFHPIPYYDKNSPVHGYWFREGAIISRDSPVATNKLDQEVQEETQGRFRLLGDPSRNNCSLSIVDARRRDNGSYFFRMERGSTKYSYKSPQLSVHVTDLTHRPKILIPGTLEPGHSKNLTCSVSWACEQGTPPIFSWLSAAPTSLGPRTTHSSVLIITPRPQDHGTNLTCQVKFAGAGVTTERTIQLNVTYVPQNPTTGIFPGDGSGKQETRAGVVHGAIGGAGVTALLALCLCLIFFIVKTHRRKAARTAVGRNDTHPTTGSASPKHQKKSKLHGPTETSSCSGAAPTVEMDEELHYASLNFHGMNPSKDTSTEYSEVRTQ

The first assay addresses T1, human CD33 on cells (human, UniProt P20138 18-364). Briefly: cell-based or functional assay.
B1: the “EC50 on HL-60 [pM] (cytotoxicity)” value amounted to 7.6 pM.
Same read-out and setting: then B2, with 3.2 pM; and B3, with 9.6 pM; and B4, with 1.1 pM.
On the same count and under the same terms, the figure for B5 is 2.8 pM; for B6 it is 2.7 pM; for B7 it is 1.6 pM.
Still for that read-out and setting: then B8, with 17.8 pM.

For another assay, the target named is T2, human CD3 on T cells (human, UniProt P07766 23-207). Briefly: cell-based or functional assay.
T2 sequence (P07766 23-207): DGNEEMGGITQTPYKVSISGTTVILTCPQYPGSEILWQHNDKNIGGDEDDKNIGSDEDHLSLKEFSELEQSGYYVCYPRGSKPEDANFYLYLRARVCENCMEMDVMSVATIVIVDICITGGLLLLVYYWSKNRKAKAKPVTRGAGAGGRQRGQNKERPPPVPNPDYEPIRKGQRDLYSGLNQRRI
Regarding B1, the “CD69 Induction EC50 (pM)” value was 225 pM and the “T cell Proliferation in PBMC EC50 (pM)” value turned out to be 500 pM.
On to B2, for which the “CD25 Induction EC50 (pM)” value turned out to be 10 pM, the “CD69 Induction EC50 (pM)” value came to 4 pM and the “T cell Proliferation in PBMC EC50 (pM)” value was determined as 7 pM.
For B3, the “CD69 Induction EC50 (pM)” value came out at 57 pM and the “T cell Proliferation in PBMC EC50 (pM)” value was 264 pM.
On to B4, for which the “CD25 Induction EC50 (pM)” value stood at 30 pM, the “CD69 Induction EC50 (pM)” value was 22 pM and the “T cell Proliferation in PBMC EC50 (pM)” value was 23 pM.
In the same order, the values of B5 are 41 pM, 17 pM and 37 pM.
Consider B6, for which the “CD25 Induction EC50 (pM)” value came to 116 pM, the “CD69 Induction EC50 (pM)” value was found to be 74 pM and the “T cell Proliferation in PBMC EC50 (pM)” value was determined as 74 pM.
Consider B7, for which the “CD25 Induction EC50 (pM)” value was found to be 39 pM, the “CD69 Induction EC50 (pM)” value is 21 pM and the “T cell Proliferation in PBMC EC50 (pM)” value was determined as 48 pM.
The matching figures for B8: 134 pM, 65 pM and 50 pM.

The next assay concerns the target T1, human CD33 on cells. Briefly: flow cytometry, HL-60 cells. Background: Flow cytometry measures light scatter and fluorescence of single cells or particles in a stream.
Turning to B1, the dissociation constant Kd (usually the concentration at which binding is half-saturated) came to 9.7 nM.
Take B2: binding was put at a Kd of 0.7 nM.
On the same count and under the same terms, the figure for B3 is 5.6 nM; for B4 it is 0.2 nM.
On to B5, for which binding was put at a Kd of 0.4 nM.
Still for that read-out and setting: then B6, with 1 nM.
On the same count and under the same terms, then B7, with 0.4 nM; and B8, with 13.7 nM.

Another assay deals with T1, human CD33 on cells. Briefly: flow cytometry, titration on KG-1 cells.
In turn, B1 came in with a Kd of 25.1 nM.
On the same count and under the same terms, the figure for B2 is 2 nM.
Still for that read-out and setting: the figure for B3 is 12.4 nM.
Still for that read-out and setting: the figure for B4 is 0.3 nM.
The molecule B5 gave a dissociation constant Kd of 1 nM.
Same read-out and setting: then B6, with 1.2 nM.
Molecule B7 came in with a dissociation constant Kd of 0.5 nM.
Same read-out and setting: then B8, with 47.9 nM.

The target in the next assay is T1, human CD33 on cells. Briefly: flow cytometry, titration on HL-60 cells.
B1: the Kd turned out to be 9.7 nM.
Same read-out and setting: then B2, with 0.7 nM; and B3, with 5.6 nM.
The same measure, in the same setting: the figure for B4 is 0.2 nM.
Still for that read-out and setting: then B5, with 0.4 nM.
B6: the Kd was determined as 1 nM.
B7 yielded a Kd of 0.4 nM.
On the same count and under the same terms, the figure for B8 is 13.7 nM.

In another assay the target is T1, human CD33 on cells. Briefly: flow cytometry, titration on U-937 cells.
B1 came in with a Kd of 80.2 nM.
Same read-out and setting: the figure for B2 is 8.6 nM; for B3 it is 39.5 nM.
Take B4: the dissociation constant (Kd) was determined as 0.5 nM.
Same read-out and setting: then B5, with 5.1 nM.
For B6, the Kd was found to be 6.2 nM.
Same read-out and setting: then B7, with 1.6 nM; and B8, with 47.1 nM.

Another assay has as its target T2, human CD3 on T cells. Briefly: flow cytometry, human T-cells (as headed in Table 10).
Regarding B1, the Kd was found to be 2.1 nM.
B2 returned a Kd of 4.1 nM.
Same read-out and setting: the figure for B3 is 2.3 nM; for B4 it is 55.7 nM; for B5 it is 97.2 nM.
B6 came in with a Kd of 69.5 nM.
As to B7, binding was characterised by a dissociation constant (Kd) of 86.3 nM.
Same read-out and setting: then B8, with 49.7 nM.

The next assay concerns the target T2, human CD3 on T cells. Briefly: flow cytometry, titration on human CD3+ T cells (Jurkat per paragraph 124/paragraph 125).
B1 returned a Kd of 2.1 nM.
Same read-out and setting: then B2, with 4.1 nM.
On the same count and under the same terms, then B3, with 2.3 nM.
The same measure, in the same setting: then B4, with 55.7 nM; and B5, with 97.2 nM; and B6, with 69.5 nM.
B7 gave a dissociation constant (Kd) of 86.3 nM.
Still for that read-out and setting: then B8, with 49.7 nM.

The next assay addresses cynomolgus CD33 on CHO cells (cynomolgus monkey). Briefly: flow cytometry; KD on CHO-cynomolgus CD33 cells divided by KD on CHO-human CD33 cells.
For the molecule B1, the KD ratio cynoCD33/ huCD33 was found to be 0.9.
Still for that read-out and setting: then B2, with 0.6; and B3, with 1.8; and B4, with 1.6.
Same read-out and setting: the figure for B5 is 1.9.
Still for that read-out and setting: the figure for B6 is 0.8; for B7 it is 0.8.
Take B8: the KD ratio cynoCD33/ huCD33 came to 45.8.

These data come from EP4813396A2 (Amphivena Therapeutics, Inc., dated 2026).
